Reference: patent US20200262877A1, “ION CHANNEL-BINDING PEPTIDES AND METHODS OF USE THEREOF” (priority 2017, published 2020)

Experiments:
[1] = molecular target: T1, 5HT3a (Homo sapiens, UniProt P46098); assay: Ion channel panel (IonWorks Barracuda): 5HT3a; assay type: cell-based
T1 construct: host or cells: HEK293 or CHO
T1 sequence (P46098 whole entry, looked up): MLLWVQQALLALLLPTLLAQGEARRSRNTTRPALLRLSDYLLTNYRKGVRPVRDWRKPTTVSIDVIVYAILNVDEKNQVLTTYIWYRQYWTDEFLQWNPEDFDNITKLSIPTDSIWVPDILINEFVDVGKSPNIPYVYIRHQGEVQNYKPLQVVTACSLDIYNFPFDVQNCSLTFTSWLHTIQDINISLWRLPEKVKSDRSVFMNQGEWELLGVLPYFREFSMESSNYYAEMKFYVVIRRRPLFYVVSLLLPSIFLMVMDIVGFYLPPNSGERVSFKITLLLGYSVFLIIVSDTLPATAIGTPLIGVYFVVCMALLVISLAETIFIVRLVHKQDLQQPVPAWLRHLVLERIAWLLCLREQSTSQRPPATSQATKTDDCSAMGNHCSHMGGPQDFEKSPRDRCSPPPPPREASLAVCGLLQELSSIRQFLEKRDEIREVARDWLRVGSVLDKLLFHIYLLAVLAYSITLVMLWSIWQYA
Experimental: (§1) This example describes a method for assaying ion channel activity in cells.
(§2) Peptides were screened in duplicate at final concentrations of 20 μM and 200 nM, as determined by amino acid analysis, and diluted into HEPES buffered physiological saline (HBPS). HEK293 or CHO cells from the American Type Culture Collection (ATCC) were transfected with the appropriate ion channel before use. HEK293 cells were grown in Dulbecco's Modified Eagle Medium/Nutrient Mixture F-12, and CHO cells were cultured in Ham's F-12 media. All cultures were supplemented with 10% fetal bovine serum, 100 U/ml penicillin G, 100 μg/ml streptomycin sulfate, and the appropriate selection antibiotics. Prior to use, cells were washed twice with Hank's Balanced Salt Solution, and treated with Accutase cell detachment solution (Sigma-Aldrich). Cells were then washed. Peptides and controls were incubated with cells for at least five minutes.
(§3) Percent inhibition was defined as: (1-(Ipeptide/Icontrol))×100%).
(§4) Percent values were calculated using the following formula: % activation=(IPeptide/Icontrol)×100%, where IPeptide is the current produced by co-application a peptide with agonist, and Icontrol refers to the current produced by stimulation in control. Control used for each ion channel is the reference compound matched to a particular channel, as illustrated in TABLE 10 below.

[2] = molecular target: T2, α3β4 (Homo sapiens, UniProt P30926+P32297); assay: Ion channel panel (IonWorks Barracuda): α3β4; assay type: cell-based; settings: 100% = no change, <100% = inhibition
T2 construct: host or cells: HEK293 or CHO
Experimental: as §1, §2, §3, §4

[3] = molecular target: T3, α4β2 (Homo sapiens, UniProt P17787+P43681); assay: Ion channel panel (IonWorks Barracuda): α4β2; assay type: cell-based; settings: 100% = no change, <100% = inhibition
T3 construct: host or cells: HEK293 or CHO
T3 sequence (P43681 29-627): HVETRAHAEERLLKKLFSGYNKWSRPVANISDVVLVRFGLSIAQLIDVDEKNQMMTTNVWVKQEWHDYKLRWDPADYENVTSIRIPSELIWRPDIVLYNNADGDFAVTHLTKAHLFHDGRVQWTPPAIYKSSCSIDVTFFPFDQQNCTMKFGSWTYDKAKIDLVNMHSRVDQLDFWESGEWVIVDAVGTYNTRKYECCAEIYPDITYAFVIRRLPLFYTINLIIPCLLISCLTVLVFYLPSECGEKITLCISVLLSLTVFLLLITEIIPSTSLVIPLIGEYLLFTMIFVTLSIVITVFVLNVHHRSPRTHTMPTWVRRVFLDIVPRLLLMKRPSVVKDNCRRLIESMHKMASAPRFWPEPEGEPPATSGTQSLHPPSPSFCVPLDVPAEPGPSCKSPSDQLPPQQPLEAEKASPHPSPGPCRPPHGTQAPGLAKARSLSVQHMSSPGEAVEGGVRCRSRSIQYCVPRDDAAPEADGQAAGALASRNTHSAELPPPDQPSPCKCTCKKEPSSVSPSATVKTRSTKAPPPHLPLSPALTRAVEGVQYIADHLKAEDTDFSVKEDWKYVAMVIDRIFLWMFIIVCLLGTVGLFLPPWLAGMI
T3 sequence (P17787 26-502): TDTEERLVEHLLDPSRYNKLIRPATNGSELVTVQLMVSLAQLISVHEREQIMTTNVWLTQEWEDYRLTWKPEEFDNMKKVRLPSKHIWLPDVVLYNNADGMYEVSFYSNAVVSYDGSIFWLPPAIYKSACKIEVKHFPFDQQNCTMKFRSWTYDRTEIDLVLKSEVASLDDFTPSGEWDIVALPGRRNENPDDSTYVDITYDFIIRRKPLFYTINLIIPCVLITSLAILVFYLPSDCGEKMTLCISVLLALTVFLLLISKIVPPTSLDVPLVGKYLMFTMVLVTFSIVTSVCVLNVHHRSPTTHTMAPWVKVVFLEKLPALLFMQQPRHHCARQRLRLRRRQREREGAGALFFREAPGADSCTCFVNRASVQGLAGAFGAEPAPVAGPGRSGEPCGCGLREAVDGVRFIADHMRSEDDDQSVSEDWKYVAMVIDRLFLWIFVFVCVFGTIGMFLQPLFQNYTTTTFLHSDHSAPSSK
Experimental: as §1, §2, §3, §4

[4] = molecular target: T4, Cav2.1 (Homo sapiens, UniProt O00555); assay: cell-based; settings: 100% = no change, <100% = inhibition
T4 construct: host or cells: HEK293 or CHO
Experimental: as §1, §2, §3, §4

[5] = molecular target: T5, Cav2.2 (Homo sapiens, UniProt Q00975); assay: cell-based; settings: 100% = no change, <100% = inhibition
T5 construct: host or cells: HEK293 or CHO
Experimental: as §1, §2, §3, §4

[6] = molecular target: T6, Kv2.1 (Homo sapiens, UniProt Q14721); assay: cell-based; settings: 100% = no change, <100% = inhibition
T6 construct: host or cells: HEK293 or CHO
Experimental: as §1, §2, §3, §4

[7] = tested on: GABA; assay: Ion channel panel (IonWorks Barracuda): GABA; assay type: cell-based; settings: 100% = no change, <100% = inhibition
Experimental: as §1, §2, §3, §4

[8] = molecular target: Nav1.5 (Homo sapiens, UniProt Q14524); assay: in vitro; settings: 100% = no change; for Activity of Nav1.5 with peptide, expressed as a percentage of the reference compound: peptide at 0.2 μM; for Activity of Nav1.5 with peptide (percentage of the reference compound): peptide at 20 μM
Nav1.5, sequence (Q14524 whole entry): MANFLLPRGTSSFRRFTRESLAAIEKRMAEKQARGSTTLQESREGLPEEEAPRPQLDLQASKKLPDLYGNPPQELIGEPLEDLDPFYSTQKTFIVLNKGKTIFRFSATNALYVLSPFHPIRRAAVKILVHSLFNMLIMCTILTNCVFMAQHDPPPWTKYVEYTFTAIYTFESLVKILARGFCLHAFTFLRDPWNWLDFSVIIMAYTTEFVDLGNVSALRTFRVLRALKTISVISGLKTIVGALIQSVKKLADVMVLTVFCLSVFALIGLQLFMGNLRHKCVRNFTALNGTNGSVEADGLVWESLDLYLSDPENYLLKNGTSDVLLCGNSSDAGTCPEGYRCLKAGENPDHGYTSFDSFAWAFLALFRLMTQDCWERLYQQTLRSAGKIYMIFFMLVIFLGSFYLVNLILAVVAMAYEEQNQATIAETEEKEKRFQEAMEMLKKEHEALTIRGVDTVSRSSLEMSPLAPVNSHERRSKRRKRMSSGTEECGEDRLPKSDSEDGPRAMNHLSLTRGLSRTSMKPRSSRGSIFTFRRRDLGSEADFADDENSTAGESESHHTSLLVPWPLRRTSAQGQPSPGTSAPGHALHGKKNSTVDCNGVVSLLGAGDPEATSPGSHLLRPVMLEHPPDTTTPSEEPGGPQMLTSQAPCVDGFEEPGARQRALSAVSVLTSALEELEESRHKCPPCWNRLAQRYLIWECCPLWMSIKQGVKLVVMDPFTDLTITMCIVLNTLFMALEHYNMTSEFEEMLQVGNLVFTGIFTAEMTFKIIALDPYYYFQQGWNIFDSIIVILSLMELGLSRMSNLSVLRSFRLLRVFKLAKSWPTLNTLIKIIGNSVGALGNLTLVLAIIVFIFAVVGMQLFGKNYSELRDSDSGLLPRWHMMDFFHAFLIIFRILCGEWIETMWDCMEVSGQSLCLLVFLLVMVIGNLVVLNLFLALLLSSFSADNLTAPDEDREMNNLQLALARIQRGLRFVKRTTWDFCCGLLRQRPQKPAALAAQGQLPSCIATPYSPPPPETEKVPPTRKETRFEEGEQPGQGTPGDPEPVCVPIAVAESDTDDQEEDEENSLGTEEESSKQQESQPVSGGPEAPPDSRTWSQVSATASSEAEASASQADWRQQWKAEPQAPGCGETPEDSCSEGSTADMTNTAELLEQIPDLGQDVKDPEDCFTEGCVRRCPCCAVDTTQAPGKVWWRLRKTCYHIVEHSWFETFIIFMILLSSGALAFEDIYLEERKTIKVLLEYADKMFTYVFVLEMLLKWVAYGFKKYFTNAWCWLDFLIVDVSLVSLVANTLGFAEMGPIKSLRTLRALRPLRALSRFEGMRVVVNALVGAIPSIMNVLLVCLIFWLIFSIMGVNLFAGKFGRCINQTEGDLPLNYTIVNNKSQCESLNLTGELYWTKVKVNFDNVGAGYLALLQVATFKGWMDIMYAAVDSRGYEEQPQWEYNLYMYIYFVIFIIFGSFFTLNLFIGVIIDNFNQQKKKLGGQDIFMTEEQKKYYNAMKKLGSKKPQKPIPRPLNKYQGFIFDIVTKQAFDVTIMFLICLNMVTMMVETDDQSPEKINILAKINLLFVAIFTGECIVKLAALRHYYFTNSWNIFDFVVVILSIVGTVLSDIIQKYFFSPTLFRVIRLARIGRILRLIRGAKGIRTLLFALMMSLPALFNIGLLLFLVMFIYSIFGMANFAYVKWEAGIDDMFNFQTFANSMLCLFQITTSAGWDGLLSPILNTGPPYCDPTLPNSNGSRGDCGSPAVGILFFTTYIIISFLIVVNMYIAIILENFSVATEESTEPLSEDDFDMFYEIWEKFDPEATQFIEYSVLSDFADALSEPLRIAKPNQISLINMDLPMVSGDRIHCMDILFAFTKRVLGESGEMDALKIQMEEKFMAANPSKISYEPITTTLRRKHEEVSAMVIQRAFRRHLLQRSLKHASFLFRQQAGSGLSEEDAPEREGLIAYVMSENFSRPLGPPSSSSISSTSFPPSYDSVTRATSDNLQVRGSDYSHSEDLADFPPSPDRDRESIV
Experimental: as §1, §2, §3, §4

[9] = molecular target: hERG (Homo sapiens, UniProt Q12809); assay: in vitro; settings: 100% = no change, <100% = inhibition
Experimental: as §1, §2, §3, §4

[10] = molecular target: T7, Kir2.1 (Homo sapiens, UniProt P63252); assay: Ion channel panel (IonWorks Barracuda): Kir2.1; assay type: cell-based; settings: 100% = no change, <100% = inhibition
T7 construct: host or cells: HEK293 or CHO
Experimental: as §1, §2, §3, §4

[11] = molecular target: T8, Kv1.1 (Homo sapiens, UniProt Q09470); assay: cell-based; assay type: cell-based; settings: 100% = no change, <100% = inhibition
T8 construct: host or cells: HEK293 or CHO
Experimental: as §1, §2, §3, §4

[12] = molecular target: T9, Kv1.2 (Homo sapiens, UniProt P16389); assay: cell-based; assay type: cell-based; settings: 100% = no change, <100% = inhibition
T9 construct: host or cells: HEK293 or CHO
Experimental: as §1, §2, §3, §4

[13] = molecular target: T10, Kv1.3 (Homo sapiens, UniProt P22001); assay: cell-based; assay type: cell-based; settings: 100% = no change, <100% = inhibition
T10 construct: host or cells: HEK293 or CHO
Experimental: as §1, §2, §3, §4

[14] = molecular target: T11, Nav1.7 (Homo sapiens, UniProt Q15858); assay: cell-based; assay type: cell-based; settings: 100% = no change; for Activity of Nav1.7 with peptide, expressed as a percentage of the reference compound: peptide at 0.2 μM; for Activity of Nav1.7 with peptide (percentage of the reference compound): peptide at 20 μM
T11 construct: host or cells: HEK293 or CHO
T11 sequence (Q15858 whole entry): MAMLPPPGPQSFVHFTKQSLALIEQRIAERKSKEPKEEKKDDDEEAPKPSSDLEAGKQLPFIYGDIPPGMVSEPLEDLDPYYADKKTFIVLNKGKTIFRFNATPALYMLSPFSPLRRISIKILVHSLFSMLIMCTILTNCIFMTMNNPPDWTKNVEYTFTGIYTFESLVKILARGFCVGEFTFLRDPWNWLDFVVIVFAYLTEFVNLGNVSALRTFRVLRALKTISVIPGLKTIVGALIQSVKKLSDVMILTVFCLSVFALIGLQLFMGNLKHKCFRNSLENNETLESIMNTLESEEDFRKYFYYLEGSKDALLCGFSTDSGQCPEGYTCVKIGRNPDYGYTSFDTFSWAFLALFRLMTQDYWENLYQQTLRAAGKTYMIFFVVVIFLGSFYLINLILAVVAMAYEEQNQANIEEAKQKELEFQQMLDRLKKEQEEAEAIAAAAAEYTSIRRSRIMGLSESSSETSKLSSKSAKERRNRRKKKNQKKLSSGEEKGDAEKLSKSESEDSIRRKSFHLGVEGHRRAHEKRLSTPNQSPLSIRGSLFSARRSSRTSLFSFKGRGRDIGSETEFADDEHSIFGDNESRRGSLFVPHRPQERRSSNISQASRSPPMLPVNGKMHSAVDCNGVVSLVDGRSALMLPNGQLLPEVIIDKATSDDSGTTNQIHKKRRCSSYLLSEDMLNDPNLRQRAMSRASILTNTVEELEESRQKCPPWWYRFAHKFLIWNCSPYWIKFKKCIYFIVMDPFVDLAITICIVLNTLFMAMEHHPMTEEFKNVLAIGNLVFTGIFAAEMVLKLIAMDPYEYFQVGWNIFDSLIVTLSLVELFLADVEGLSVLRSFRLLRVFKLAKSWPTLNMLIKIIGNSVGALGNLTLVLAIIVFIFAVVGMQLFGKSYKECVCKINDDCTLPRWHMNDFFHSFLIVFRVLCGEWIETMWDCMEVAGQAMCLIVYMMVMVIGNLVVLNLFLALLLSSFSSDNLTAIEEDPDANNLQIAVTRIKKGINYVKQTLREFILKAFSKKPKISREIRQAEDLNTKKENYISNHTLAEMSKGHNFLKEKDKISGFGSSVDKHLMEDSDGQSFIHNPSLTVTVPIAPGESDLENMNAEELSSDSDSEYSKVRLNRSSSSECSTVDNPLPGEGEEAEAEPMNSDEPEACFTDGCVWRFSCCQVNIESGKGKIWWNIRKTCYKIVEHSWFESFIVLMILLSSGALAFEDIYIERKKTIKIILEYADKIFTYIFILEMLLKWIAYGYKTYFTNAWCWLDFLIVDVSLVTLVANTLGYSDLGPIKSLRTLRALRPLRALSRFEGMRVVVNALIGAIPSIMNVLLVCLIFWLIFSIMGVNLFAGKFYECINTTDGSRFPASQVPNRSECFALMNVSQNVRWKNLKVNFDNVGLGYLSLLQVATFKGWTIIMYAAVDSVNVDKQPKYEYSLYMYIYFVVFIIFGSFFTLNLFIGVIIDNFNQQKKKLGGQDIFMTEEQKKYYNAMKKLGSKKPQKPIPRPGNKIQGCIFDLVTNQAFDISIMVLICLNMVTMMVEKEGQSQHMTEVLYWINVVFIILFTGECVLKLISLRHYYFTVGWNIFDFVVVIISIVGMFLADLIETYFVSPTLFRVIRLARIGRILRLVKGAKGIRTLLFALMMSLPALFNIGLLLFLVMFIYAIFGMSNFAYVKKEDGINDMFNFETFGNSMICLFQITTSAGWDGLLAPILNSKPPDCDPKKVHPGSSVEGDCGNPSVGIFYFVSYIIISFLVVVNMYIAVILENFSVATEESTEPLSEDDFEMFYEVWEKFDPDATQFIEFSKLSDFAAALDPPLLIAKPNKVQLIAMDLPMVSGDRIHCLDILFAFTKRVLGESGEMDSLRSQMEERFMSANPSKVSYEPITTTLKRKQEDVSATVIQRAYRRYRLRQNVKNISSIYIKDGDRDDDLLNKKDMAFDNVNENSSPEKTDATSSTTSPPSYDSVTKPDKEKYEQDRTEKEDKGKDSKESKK
Experimental: as §1
as §2, with “Peptides were screened in duplicate at final concentrations of 20 μM and 200 nM, as determined by amino acid analysis, and diluted into HEPES buffered physiological saline (HBPS).” left out
as §3, §4

[15] = molecular target: T12, NR2A (Homo sapiens, UniProt Q12879); assay: Ion channel panel (IonWorks Barracuda): NR2A; assay type: cell-based; settings: 100% = no change, <100% = inhibition
T12 construct: host or cells: HEK293 or CHO
Experimental: as §1, §2, §3, §4

[16] = molecular target: T13, NR2B (Homo sapiens, UniProt Q13224); assay: Ion channel panel (IonWorks Barracuda): NR2B; assay type: cell-based; settings: 100% = no change, <100% = inhibition
T13 construct: host or cells: HEK293 or CHO
Experimental: as §1, §2, §3, §4

[17] = molecular target: T14, TRPA1 (Homo sapiens, UniProt O75762); assay: Ion channel panel (IonWorks Barracuda): TRPA1; assay type: cell-based; settings: 100% = no change, <100% = inhibition
T14 construct: host or cells: HEK293 or CHO
Experimental: as §1, §2, §3, §4

[18] = molecular target: T15, TRPV1 (Homo sapiens, UniProt Q8NER1); assay: Ion channel panel (IonWorks Barracuda): TRPV1; assay type: cell-based; settings: 100% = no change, <100% = inhibition
T15 construct: host or cells: HEK293 or CHO
Experimental: as §1, §2, §3, §4

[19] = first of two Nav1.5 columns (probably TP1)
[20] = second of two Nav1.5 columns (probably TP2)
[21] = first of two Nav1.7 columns (probably TP1)
[22] = second of two Nav1.7 columns (probably TP2)

6 (GSVRIPVSCKHSGQCLKPCKDAGMRFGKCMNGKCDCTPK) [compound 6]
Activity of 5HT3a with peptide (percentage of the reference compound) [1]: 84%
Activity of 5HT3a with peptide, expressed as a percentage of the reference compound [1]: 85%
Activity of a3b4 with peptide, expressed as a percentage of the reference compound ([2]; peptide at 0.2 μM): 100%
Activity of a3b4 with peptide (percentage of the reference compound) ([2]; peptide at 20 μM): 95%
Activity of a4b2 with peptide, expressed as a percentage of the reference compound ([3]; peptide at 0.2 μM): 71%
Activity of a4b2 with peptide (percentage of the reference compound) ([3]; peptide at 20 μM): 96%
Activity of Cav2.1 with peptide, expressed as a percentage of the reference compound ([4]; peptide at 0.2 μM): 109%
Activity of Cav2.1 with peptide (percentage of the reference compound) ([4]; peptide at 20 μM): 111%
Activity of Cav2.2 with peptide, expressed as a percentage of the reference compound ([5]; peptide at 0.2 μM): 103%
Activity of Cav2.2 with peptide (percentage of the reference compound) ([5]; peptide at 20 μM): 107%
Activity of Kv2.1 with peptide, expressed as a percentage of the reference compound ([6]; peptide at 0.2 μM): 103%
Activity of Kv2.1 with peptide (percentage of the reference compound) ([6]; peptide at 20 μM): 124%
Activity of GABA with peptide, expressed as a percentage of the reference compound ([7]; peptide at 0.2 μM): 104%
Activity of GABA with peptide (percentage of the reference compound) ([7]; peptide at 20 μM): 96%
Activity of Nav1.5 with peptide, expressed as a percentage of the reference compound [8, 19]: 105%
Activity of Nav1.5 with peptide, expressed as a percentage of the reference compound [8, 20]: 104%
Activity of Nav1.5 with peptide (percentage of the reference compound) [8, 19]: 116%
Activity of Nav1.5 with peptide (percentage of the reference compound) [8, 20]: 120%
Activity of hERG with peptide, expressed as a percentage of the reference compound ([9]; peptide at 0.2 μM): 107%
Activity of hERG with peptide (percentage of the reference compound) ([9]; peptide at 20 μM): 71%
Activity of Kir2.1 with peptide, expressed as a percentage of the reference compound ([10]; peptide at 0.2 μM): 96%
Activity of Kir2.1 with peptide (percentage of the reference compound) ([10]; peptide at 20 μM): 94%
Activity of Kv1.1 with peptide, expressed as a percentage of the reference compound ([11]; peptide at 0.2 μM): 96%
Activity of Kv1.1 with peptide (percentage of the reference compound) ([11]; peptide at 20 μM): 30%
Activity of Kv1.2 with peptide, expressed as a percentage of the reference compound ([12]; peptide at 0.2 μM): 81%
Activity of Kv1.2 with peptide (percentage of the reference compound) ([12]; peptide at 20 μM): 85%
Activity of Kv1.3 with peptide, expressed as a percentage of the reference compound ([13]; peptide at 0.2 μM): 25%
Activity of Kv1.3 with peptide (percentage of the reference compound) ([13]; peptide at 20 μM): 0%
Activity of Nav1.7 with peptide, expressed as a percentage of the reference compound [14, 21]: 98%
Activity of Nav1.7 with peptide, expressed as a percentage of the reference compound [14, 22]: 95%
Activity of Nav1.7 with peptide (percentage of the reference compound) [14, 21]: 116%
Activity of Nav1.7 with peptide (percentage of the reference compound) [14, 22]: 119%
Activity of NR2A with peptide, expressed as a percentage of the reference compound ([15]; peptide at 0.2 μM): 86%
Activity of NR2A with peptide (percentage of the reference compound) ([15]; peptide at 20 μM): 88%
Activity of NR2B with peptide, expressed as a percentage of the reference compound ([16]; peptide at 0.2 μM): 92%
Activity of NR2B with peptide (percentage of the reference compound) ([16]; peptide at 20 μM): 75%
Activity of TRPA1 with peptide, expressed as a percentage of the reference compound ([17]; peptide at 0.2 μM): 126%
Activity of TRPA1 with peptide (percentage of the reference compound) ([17]; peptide at 20 μM): 92%
Activity of TRPV1 with peptide, expressed as a percentage of the reference compound ([18]; peptide at 0.2 μM): 86%
Activity of TRPV1 with peptide (percentage of the reference compound) ([18]; peptide at 20 μM): 98%
